± gives the uncertainty stated by the source.

This data set can be described thus: self-splicing fitness, log relative to wild type (ln ratio); higher = more splicing; Tetrahymena group I intron in knt gene, E. coli kanamycin selection, DiMSum; sequences stand for … in CUCUCU…GGAGGGAAAAGUUAUCAGGCAUGCACCUGGUAGCUAGUCUUUAAACCAAUAGAUUGCAUCGGUUUAAAAGGCAAGACCGUCAAAUUGCGGGAAAGGGGUCAACAGCCGUUCAGUACCAAGUCUCAGGGGAAACUUUGAGAUGGCCUUGCAAAGGGUAUGGUAAUAAGCUGACGGACAUGGUCCUAACCACGCAGCCAAGUCCUAAGUCAACAGAUCUUCUGUUGAUAUGGAUGCAGUUCACAGACUAAAUGUCGGUCGGGGAAGAUGUAUUCUUCUCAUAAGAUAUAGUCGGACCUCUCCUUAAUGGGAGCUAGCGGAUGAAGUGAUGCAACACUGGAGCCGCUGGGAACUAAUUUGUAUGCGAAAGUAUAUUGAUUAGUUUUGGAGUACUCGUGGUCG
A digest of the protocol:
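DiMSum derived fitness as the error-weighted combination of fold changes across replicates, kanamycin versus no kanamycin, normalised to wild type. E. coli BL21(DE3) held the library, which randomised all eight P1ex-region intron nucleotides within the knt kanamycin-resistance gene on pET-22b(+). Six replicate transformations grew overnight at 37°C or 30°C on LB agar with or without 25 μg/mL kanamycin, also containing 100 μg/mL carbenicillin, 50 μM IPTG and 0.2% rhamnose, and pooled colonies were amplicon-sequenced on an Illumina HiSeq 2500.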

In the case of ACCAAGCAAUAUUACGGCUA, the “self-splicing fitness (ln)” value is -0.574 ± 0.065 (30 °C) and -0.0302 ± 0.07 (37 °C).
For the sequence UUUGAGCAAUAUUACGUCGA, the “self-splicing fitness (ln)” value runs as follows: (30 °C) -2.46 ± 0.2; (37 °C) -0.692 ± 0.24.
As for GUUCAGCAAUAUUACGAUGA, the “self-splicing fitness (ln)” value runs as follows: (30 °C) -1.07 ± 0.13; (37 °C) -0.686 ± 0.19.
The corresponding values for UCGAAGCAAUAUUACGGCCU are -2.16 ± 0.22 and -1.77 ± 0.21.
Take GUGCAGCAAUAUUACGGCUU: the “self-splicing fitness (ln)” value is, setting by setting: (30 °C) -0.306 ± 0.052; (37 °C) -0.128 ± 0.072.
Consider AUCUAGCAAUAUUACGUGGU, for which, where the note is “37 °C”, the “self-splicing fitness (ln)” value is -2.85 ± 0.38.
With GUCCAGCAAUAUUACGACAC, the “self-splicing fitness (ln)” value stood at 1.02 ± 0.18 (30 °C) and 0.572 ± 0.24 (37 °C).
The corresponding values for CUUGAGCAAUAUUACGGAAC are -2.25 ± 0.2 and -2.61 ± 0.33.
Consider GAUAAGCAAUAUUACGGAGA, for which the “self-splicing fitness (ln)” value runs as follows: (30 °C) -3.48 ± 0.36; (37 °C) -2.78 ± 0.24.
In the case of UAGCAGCAAUAUUACGUAGU, the “self-splicing fitness (ln)” value (30 °C) was -2.15 ± 0.14 and the “self-splicing fitness (ln)” value (37 °C) was -2.48 ± 0.31.
Take GUCAAGCAAUAUUACGAAGU: the “self-splicing fitness (ln)” value reads like this: (30 °C) -2.51 ± 0.092; (37 °C) -1.16 ± 0.1.
As to GGGAAGCAAUAUUACGUAUG, the “self-splicing fitness (ln)” value was -2.95 ± 0.16 (30 °C) and -1.11 ± 0.15 (37 °C).
The corresponding values for CAGUAGCAAUAUUACGAGAU are -4.27 ± 0.46 and -1.9 ± 0.27.
In the case of UUACAGCAAUAUUACGGUGA, the “self-splicing fitness (ln)” value is -1.03 ± 0.099 (30 °C) and -0.122 ± 0.14 (37 °C).
AACUAGCAAUAUUACGCUAG: the “self-splicing fitness (ln)” value by setting is: (30 °C) -4.12 ± 0.23; (37 °C) -2.81 ± 0.22.
In the case of UUUGAGCAAUAUUACGCAUA, the “self-splicing fitness (ln)” value (37 °C) is -1.01 ± 0.29.
For the sequence CAAAAGCAAUAUUACGUGGU, the “self-splicing fitness (ln)” value was -3.65 ± 0.11 (30 °C) and -2.49 ± 0.11 (37 °C).
For ACCUAGCAAUAUUACGUCUC, the “self-splicing fitness (ln)” value is -1.59 ± 0.096 (30 °C) and -0.658 ± 0.14 (37 °C).
The corresponding values for AUCUAGCAAUAUUACGUACG are -2.01 ± 0.23 and -1.04 ± 0.2.
The corresponding values for GUGUAGCAAUAUUACGAACA are -1.66 ± 0.16 and -0.829 ± 0.12.
The corresponding values for CCAGAGCAAUAUUACGGGGU are -2.35 ± 0.43 and -2.78 ± 0.34.
For the sequence CACAAGCAAUAUUACGGGUC, the “self-splicing fitness (ln)” value was -3.43 ± 0.1 (30 °C) and -2.2 ± 0.12 (37 °C).
The corresponding values for CGCCAGCAAUAUUACGACCC are -1.84 ± 0.21 and -1.46 ± 0.39.
Regarding GAUGAGCAAUAUUACGAUCA, the “self-splicing fitness (ln)” value (30 °C) is -2.17 ± 0.24 and the “self-splicing fitness (ln)” value (37 °C) is -1.31 ± 0.21.
In the case of AAGUAGCAAUAUUACGCCAA, the “self-splicing fitness (ln)” value runs as follows: (30 °C) -2.53 ± 0.24; (37 °C) -1.55 ± 0.23.
The corresponding values for AUGUAGCAAUAUUACGCGUA are -1.66 ± 0.13 and -0.708 ± 0.14.
The corresponding values for CUUAAGCAAUAUUACGAAGC are -3.09 ± 0.36 and -2.17 ± 0.31.
The corresponding values for UGGAAGCAAUAUUACGCUAG are -0.433 ± 0.1 and -0.523 ± 0.17.
Regarding AUGCAGCAAUAUUACGGGCA, the “self-splicing fitness (ln)” value is -0.699 ± 0.11 (30 °C) and 0.227 ± 0.12 (37 °C).
The corresponding values for UUUUAGCAAUAUUACGAGGA are -1.04 ± 0.17 and -1.3 ± 0.21.
For the sequence UGACAGCAAUAUUACGUAUA, the “self-splicing fitness (ln)” value reads like this: (30 °C) -2.19 ± 0.092; (37 °C) -0.776 ± 0.096.
The corresponding values for CAUCAGCAAUAUUACGCUGA are -3.2 ± 0.22 and -2.24 ± 0.27.
Take AACGAGCAAUAUUACGGGCA: the “self-splicing fitness (ln)” value runs as follows: (30 °C) -2.92 ± 0.24; (37 °C) -2.38 ± 0.24.
The corresponding values for CGGAAGCAAUAUUACGCCUC are -3.04 ± 0.27 and -2.89 ± 0.4.
The corresponding values for AUGAAGCAAUAUUACGGUAA are -1.22 ± 0.065 and -0.5 ± 0.088.
For the sequence GGGAAGCAAUAUUACGGUGC, the “self-splicing fitness (ln)” value (30 °C) was -1.17 ± 0.17 and the “self-splicing fitness (ln)” value (37 °C) was -0.397 ± 0.22.
On to UCGCAGCAAUAUUACGGCAA, for which the “self-splicing fitness (ln)” value (30 °C) is -0.188 ± 0.079 and the “self-splicing fitness (ln)” value (37 °C) was found to be 0.0609 ± 0.11.
For the sequence CAGAAGCAAUAUUACGCGCA, the “self-splicing fitness (ln)” value is, setting by setting: (30 °C) -1.55 ± 0.17; (37 °C) -0.337 ± 0.12.

These data come from the supplement of paper PMC7877785.
